Results reported in patent US20250361274A1, “PEPTIDE AND PEPTIDE-CONTAINING AGENT” (PEPTIDREAM INC., priority 2022, published 2025).
Numbered stars: 1 amine (or outer) side, 2 acyl side, 3 side chain; on linkers, the order of the positions; unused ones are H or OH. Bridge positions count the residues as written; N and C are the ends. Square brackets hold non-standard residues; d marks the D form. KCOpipzaa = N6-(4-(carboxymethyl)piperazine-1-carbonyl)-L-lysine, O=C(NCCCC[C@H](N[*:1])C(=O)[*:2])N1CCN(CC(=O)[*:3])CC1; 3Pal(6-Ph) = N[C@@H](Cc1ccc(-c2ccccc2)nc1)C(=O)O; Phe(4-COOH) = N[C@@H](Cc1ccc(C(=O)O)cc1)C(=O)O; Bip = N[C@@H](Cc1ccc(-c2ccccc2)cc1)C(=O)O; 3Pal(6-NH2) = Nc1ccc(C[C@H](N)C(=O)O)cn1; Aad = N[C@@H](CCCC(=O)O)C(=O)O; βAla = NCCC(=O)O

Assays:
[1] = target: T1, BMP4 (Homo sapiens, UniProt P12644); test: BMP4 signal transduction inhibitory activity: SMAD1 phosphorylation by BMP4 stimulus, AlphaLISA SureFire, A549 cells; format: cell-based; settings: inhibition of SMAD1 phosphorylation by BMP4 stimulus, A549 cells, ND
T1 sequence (P12644 293-408): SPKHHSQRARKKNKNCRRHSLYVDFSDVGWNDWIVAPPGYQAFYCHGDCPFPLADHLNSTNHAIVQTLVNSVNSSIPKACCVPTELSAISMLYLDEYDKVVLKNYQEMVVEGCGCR

[2] = target: T2, BMP7 (Homo sapiens, UniProt P18075); test: BMP7 signal transduction inhibitory activity: SMAD1 phosphorylation by BMP7 stimulus, A549 cells; format: cell-based; settings: inhibition of SMAD1 phosphorylation by BMP7 stimulus, A549 cells, ND
T2 sequence (P18075 293-431): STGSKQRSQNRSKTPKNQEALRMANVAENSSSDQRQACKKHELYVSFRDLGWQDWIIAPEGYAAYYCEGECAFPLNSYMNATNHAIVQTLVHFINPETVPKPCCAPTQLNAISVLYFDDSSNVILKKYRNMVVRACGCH
Summary of the method: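 A549 cells were stimulated with 10 nM BMP7, and peptide inhibition of signalling was measured as SMAD1 phosphorylation. Peptides were tested at three concentrations, in sets ranging from 1–100 nM to 100–1,000 nM, or as eight-point 1/3 dilution series starting at 100 nM or 1,000 nM.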

[3] = peptides of Synthesis 2, classes A-C
[4] = peptides of Synthesis 2, classes A-D
[5] = peptides of Synthesis 1, classes D-F
[6] = peptides of Synthesis 1, classes E, F

Substance: 116 (EKVYVKRFPYPFYFFSCA; not fully specified; MOD_RES 2 K represents N6-(4-(Carboxymethyl) piperazine-1-carbonyl)-L-lysine(KCOpipzaa); MOD_RES 6 K represents N6-(4-(Carboxymethyl) piperazine-1-carbonyl)-L-lysine(KCOpipzaa); MOD_RES 8 F represents (S)-3-(1,1'-Biphenyl-4-yl)-2-aminopropanoic acid(Bph); MOD_RES 12 F represents (S)-3-(1,1'-Biphenyl-4-yl)-2-aminopropanoic acid(Bph); MOD_RES 14 F represents (S)-4-(2-amino-2-carboxyethyl)benzoic aci) [compound 116]
- aLISA BMP4 [1, 3]: A (showed an inhibitory activity of 50% or more in a zone to which the peptide was added to in an amount of 0.2 nM)
- aLISA BMP7 [2, 4]: C (showed less than 50% of inhibitory activity in 10 nM-addition zone and showed 50% or more of inhibitory activity in 100 nM-addition zone)

Substance: 117 (EKVYVKRFPYPFYFFSCAE; not fully specified; MOD_RES 2 K represents N6-(4-(Carboxymethyl) piperazine-1-carbonyl)-L-lysine(KCOpipzaa); MOD_RES 6 K represents N6-(4-(Carboxymethyl) piperazine-1-carbonyl)-L-lysine(KCOpipzaa); MOD_RES 8 F represents (S)-3-(1,1'-Biphenyl-4-yl)-2-aminopropanoic acid(Bph); MOD_RES 12 F represents (S)-3-(1,1'-Biphenyl-4-yl)-2-aminopropanoic acid(Bph); MOD_RES 14 F represents (S)-4-(2-amino-2-carboxyethyl)benzoic aci) [compound 117]
- aLISA BMP4 [1, 3]: C (showed an inhibitory activity of less than 50% in 0.2 nM-addition zone and showed an inhibitory activity of 50% or more in 2 nM-addition zone were defined as B or C)
- aLISA BMP7 [2, 4]: C (showed less than 50% of inhibitory activity in 10 nM-addition zone and showed 50% or more of inhibitory activity in 100 nM-addition zone)

Substance: 118 (EKVYVKRFPYPFYFFSCAE; not fully specified; MOD_RES 2 K represents N6-(4-(Carboxymethyl) piperazine-1-carbonyl)-L-lysine(KCOpipzaa); MOD_RES 6 K represents N6-(4-(Carboxymethyl) piperazine-1-carbonyl)-L-lysine(KCOpipzaa); MOD_RES 8 F represents (S)-3-(1,1'-Biphenyl-4-yl)-2-aminopropanoic acid(Bph); MOD_RES 12 F represents (S)-3-(1,1'-Biphenyl-4-yl)-2-aminopropanoic acid(Bph); MOD_RES 14 F represents (S)-4-(2-amino-2-carboxyethyl)benzoic aci) [compound 118]
- aLISA BMP4 [1, 3]: A (showed an inhibitory activity of 50% or more in a zone to which the peptide was added to in an amount of 0.2 nM)
- aLISA BMP7 [2, 4]: C (showed less than 50% of inhibitory activity in 10 nM-addition zone and showed 50% or more of inhibitory activity in 100 nM-addition zone)

Substance: 120 ({CH2CO}-E[KCOpipzaa]VYV[KCOpipzaa]R[3Pal(6-Ph)]SYP[Bip]Y[Phe(4-COOH)][Phe(4-COOH)]SCG-NH2; thioether N-17; not fully specified) [compound 120]
- aLISA BMP4 [1, 3]: A (showed an inhibitory activity of 50% or more in a zone to which the peptide was added to in an amount of 0.2 nM)
- aLISA BMP7 [2, 4]: ND (the inhibitory activity was less than 30% at the maximum concentration evaluated)

Substance: 121 ({CH2CO}-ERV[Phe(4-COOH)]VDR[Bip]PYP[Bip]Y[Phe(4-COOH)][Phe(4-COOH)]SC[βAla][dE]-OH; thioether N-17; not fully specified) [compound 121]
- aLISA BMP4 [1, 3]: A (showed an inhibitory activity of 50% or more in a zone to which the peptide was added to in an amount of 0.2 nM)
- aLISA BMP7 [2, 4]: B (showed less than 50% of inhibitory activity in 1 nM-addition zone and showed 50% or more of inhibitory activity in 10 nM-addition zone)

Substance: 122 ({CH2CO}-ERV[Phe(4-COOH)]V[KCOpipzaa]R[Bip]PYP[Bip]Y[Phe(4-COOH)][Phe(4-COOH)]SC[βAla][dE]-OH; thioether N-17; not fully specified) [compound 122]
- aLISA BMP4 [1, 3]: A (showed an inhibitory activity of 50% or more in a zone to which the peptide was added to in an amount of 0.2 nM)
- aLISA BMP7 [2, 4]: C (showed less than 50% of inhibitory activity in 10 nM-addition zone and showed 50% or more of inhibitory activity in 100 nM-addition zone)

Substance: 123 ({CH2CO}-ERV[Phe(4-COOH)]V[KCOpipzaa]R[Bip]PYV[Bip]Y[Phe(4-COOH)][Phe(4-COOH)]SC[βAla][dE]-OH; thioether N-17; not fully specified) [compound 123]
- aLISA BMP4 [1, 3]: A (showed an inhibitory activity of 50% or more in a zone to which the peptide was added to in an amount of 0.2 nM)
- aLISA BMP7 [2, 4]: C (showed less than 50% of inhibitory activity in 10 nM-addition zone and showed 50% or more of inhibitory activity in 100 nM-addition zone)

Substance: 124 ({CH2CO}-ERV[Phe(4-COOH)]V[KCOpipzaa]R[Bip]SYV[Bip]Y[Phe(4-COOH)][Phe(4-COOH)]SC[βAla][dE]-OH; thioether N-17; not fully specified) [compound 124]
- aLISA BMP4 [1, 3]: A (showed an inhibitory activity of 50% or more in a zone to which the peptide was added to in an amount of 0.2 nM)
- aLISA BMP7 [2, 4]: C (showed less than 50% of inhibitory activity in 10 nM-addition zone and showed 50% or more of inhibitory activity in 100 nM-addition zone)

Substance: 125 ({CH2CO}-E[Aad]VYVDR[Bip]PYV[Bip]Y[Phe(4-COOH)][Phe(4-COOH)]SCG-NH2; thioether N-17; not fully specified) [compound 125]
- aLISA BMP4 [1, 5]: E (showed less than 50% of inhibitory activity in 0.2 nM-addition zone and showed 50% or more of inhibitory activity in 2 nM-addition zone)
- aLISA BMP7 [2, 6]: E (showed 50% or more of inhibitory activity in a zone to which the peptide was added in an amount of 10 nM)

Substance: 131 ({CH2CO}-ERVYDDR[Bip]PYV[Bip]Y[Phe(4-COOH)][Phe(4-COOH)]SCG-NH2; thioether N-17; not fully specified) [compound 131]
- aLISA BMP4 [1, 5]: D (showed 50% or more of inhibitory activity in 0.2 nM-addition zone)
- aLISA BMP7 [2, 6]: F (showed less than 50% of inhibitory activity in 10 nM-addition zone and showed 50% or more of inhibitory activity in 100 nM-addition zone)

Substance: 132 ({CH2CO}-ERVYVSR[Bip]PYV[Bip]Y[Phe(4-COOH)][Phe(4-COOH)]SCG-NH2; thioether N-17; not fully specified) [compound 132]
- aLISA BMP4 [1, 5]: E (showed less than 50% of inhibitory activity in 0.2 nM-addition zone and showed 50% or more of inhibitory activity in 2 nM-addition zone)
- aLISA BMP7 [2, 6]: ND (the inhibitory activity was less than 30% at the maximum concentration evaluated)

Substance: 133 ({CH2CO}-ERVYVD[3Pal(6-NH2)][Bip]PYV[Bip]Y[Phe(4-COOH)][Phe(4-COOH)]SCG-NH2; thioether N-17; not fully specified) [compound 133]
- aLISA BMP4 [1, 5]: E (showed less than 50% of inhibitory activity in 0.2 nM-addition zone and showed 50% or more of inhibitory activity in 2 nM-addition zone)
- aLISA BMP7 [2, 6]: E (showed 50% or more of inhibitory activity in a zone to which the peptide was added in an amount of 10 nM)
